Data set [1] has as its target T1, Bacillus subtilis ferrochelatase HemH, recombinant Strep-tag II variant (Bacillus subtilis 168, UniProt P32396 1-310).
T1 construct: ferrochelatase HemH of Bacillus subtilis 168, gene amplified from genomic DNA; Expressed from the pASK-IBA3 vector; also called HemH-Strep II; HemH-StrepII; not shown: Strep-tag II, C-terminal, kept
T1 sequence: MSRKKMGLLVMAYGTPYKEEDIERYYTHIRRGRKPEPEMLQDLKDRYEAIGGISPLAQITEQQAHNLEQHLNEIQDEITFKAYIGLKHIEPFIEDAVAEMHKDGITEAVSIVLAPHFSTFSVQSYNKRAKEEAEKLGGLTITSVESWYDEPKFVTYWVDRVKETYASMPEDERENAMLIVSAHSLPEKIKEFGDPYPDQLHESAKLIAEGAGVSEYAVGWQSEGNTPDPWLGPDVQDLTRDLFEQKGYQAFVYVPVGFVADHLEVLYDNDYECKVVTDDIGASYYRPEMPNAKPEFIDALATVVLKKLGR
The experiment in a line: MST; 50 nM fluorescently labelled holo-Fra (iron-charged); HemH titrated from 42.6 μM to 0.01 μM in TRIS-based NT binding analysis buffer; 25°C; Monolith NT.115. Conditions: both partners purified.

Data set [2] has as its target T1, Bacillus subtilis ferrochelatase HemH, …. The experiment in a line: cell-based or functional assay.
Data set [3] deals with the molecule itself. The data set is described as follows: SEC; separation of the apo- and holo-forms of bsNos by size-exclusion chromatography after affinity purification from the crude protein extract.

B1: Bacillus subtilis frataxin homologue Fra, recombinant His6-tagged (natural protein, Bacillus subtilis 168)
chain: MDVFSEYLAGIADPFHRERTEEVLTWIKNKYPNLHTEIKWNQPMFTDHGTFIIGFSVSKKHLAVAPEKVTIAHVEDDIVKAGYDYTEQLIRIPWNGPVDYTLLEKMIEFNILDKADCSTFWRK
notes: frataxin homologue Fra of Bacillus subtilis 168, gene amplified from genomic DNA; Used iron-loaded (holo-Fra, anaerobic incubation with FeCl2) or iron-free (apo-Fra); For MST it was labelled with the cysteine-reactive Monolith NT.115 Protein Labeling Kit RED; The methods say N-terminal His6-tag fusions, while legends print Fra-His6; also called Fra-His6; holo-Fra; not shown: His6, N-terminal, kept
The Kd is the concentration at which binding is half-saturated. Take B1: in data set [1], the Kd is 1630 ± 20 nM. Further, the “kcat(obs) of the frataxin-dependent conversion of protoporphyrin IX into heme b by HemH (holo-Fra varied between 0.1 and 10 μM, Michaelis-Menten fit)” value in data set [2] was 0.925 s⁻¹.

B2: Bacillus subtilis nitric oxide synthase bsNos, recombinant His6-tagged (enzyme, Bacillus subtilis 168, UniProt O34453 1-363, looked up)
chain: MEEKEILWNEAKAFIAACYQELGKEEEVKDRLADIKSEIDLTGSYVHTKEELEHGAKMAWRNSNRCIGRLFWNSLNVIDRRDVRTKEEVRDALFHHIETATNNGKIRPTITIFPPEEKGEKQVEIWNHQLIRYAGYESDGERIGDPASCSLTAACEELGWRGERTDFDLLPLIFRMKGDEQPVWYELPRSLVIEVPITHPDIEAFSDLELKWYGVPIISDMKLEVGGIHYNAAPFNGWYMGTEIGARNLADEKRYDKLKKVASVIGIAADYNTDLWKDQALVELNKAVLHSYKKQGVSIVDHHTAASQFKRFEEQEEEAGRKLTGDWTWLIPPISPAATHIFHRSYDNSIVKPNYFYQDKPYE
notes: nitric oxide synthase bsNos of Bacillus subtilis 168, gene amplified from genomic DNA; The holo-form (with heme b) is called dimeric and the apo-form monomeric; The two were separated by size-exclusion chromatography; also called Nos-His6; holo-bsNos; not shown: His6, N-terminal, kept
The term stoichiometry N denotes a count of units in the complex or per binding partner. Regarding B2, in data set [3], the “stoichiometry N” value is 2.

(Values after PMC4380498, “Molecular Insights into Frataxin-Mediated Iron Supply for Heme Biosynthesis in Bacillus subtilis” (PLoS ONE, 2015).)
